B1: Cryptochrome-2 (Mus musculus), Q9R194 (parent)
chain: MAAAAVVAATVPAQSMGADGASSVHWFRKGLRLHDNPALLAAVRGARCVRCVYILDPWFAASSSVGINRWRFLLQSLEDLDTSLRKLNSRLFVVRGQPADVFPRLFKEWGVTRLTFEYDSEPFGKERDAAIMKMAKEAGVEVVTENSHTLYDLDRIIELNGQKPPLTYKRFQALISRMELPKKPAVAVSSQQMESCRAEIQENHDDTYGVPSLEELGFPTEGLGPAVWQGGETEALARLDKHLERKAWVANYERPRMNANSLLASPTGLSPYLRFGCLSCRLFYYRLWDLYKKVKRNSTPPLSLFGQLLWREFFYTAATNNPRFDRMEGNPICIQIPWDRNPEALAKWAEGKTGFPWIDAIMTQLRQEGWIHHLARHAVACFLTRGDLWVSWESGVRVFDELLLDADFSVNAGSWMWLSCSAFFQQFFHCYCPVGFGRRTDPSGDYIRRYLPKLKGFPSRYIYEPWNAPESVQKAAKCIIGVDYPRPIVNHAETSRLNIERMKQIYQQLSRYRGLCLLASVPSCVEDLSHPVAEPGSSQAGSISNTGPRALSSGPASPKRKLEAAEEPPGEELTKRARVTEMPTQEPASKDS

Variants of: B1
Conditions: with per2_mouse Per2, O54943
per2_mouse Per2, O54943, sequence (O54943 whole entry): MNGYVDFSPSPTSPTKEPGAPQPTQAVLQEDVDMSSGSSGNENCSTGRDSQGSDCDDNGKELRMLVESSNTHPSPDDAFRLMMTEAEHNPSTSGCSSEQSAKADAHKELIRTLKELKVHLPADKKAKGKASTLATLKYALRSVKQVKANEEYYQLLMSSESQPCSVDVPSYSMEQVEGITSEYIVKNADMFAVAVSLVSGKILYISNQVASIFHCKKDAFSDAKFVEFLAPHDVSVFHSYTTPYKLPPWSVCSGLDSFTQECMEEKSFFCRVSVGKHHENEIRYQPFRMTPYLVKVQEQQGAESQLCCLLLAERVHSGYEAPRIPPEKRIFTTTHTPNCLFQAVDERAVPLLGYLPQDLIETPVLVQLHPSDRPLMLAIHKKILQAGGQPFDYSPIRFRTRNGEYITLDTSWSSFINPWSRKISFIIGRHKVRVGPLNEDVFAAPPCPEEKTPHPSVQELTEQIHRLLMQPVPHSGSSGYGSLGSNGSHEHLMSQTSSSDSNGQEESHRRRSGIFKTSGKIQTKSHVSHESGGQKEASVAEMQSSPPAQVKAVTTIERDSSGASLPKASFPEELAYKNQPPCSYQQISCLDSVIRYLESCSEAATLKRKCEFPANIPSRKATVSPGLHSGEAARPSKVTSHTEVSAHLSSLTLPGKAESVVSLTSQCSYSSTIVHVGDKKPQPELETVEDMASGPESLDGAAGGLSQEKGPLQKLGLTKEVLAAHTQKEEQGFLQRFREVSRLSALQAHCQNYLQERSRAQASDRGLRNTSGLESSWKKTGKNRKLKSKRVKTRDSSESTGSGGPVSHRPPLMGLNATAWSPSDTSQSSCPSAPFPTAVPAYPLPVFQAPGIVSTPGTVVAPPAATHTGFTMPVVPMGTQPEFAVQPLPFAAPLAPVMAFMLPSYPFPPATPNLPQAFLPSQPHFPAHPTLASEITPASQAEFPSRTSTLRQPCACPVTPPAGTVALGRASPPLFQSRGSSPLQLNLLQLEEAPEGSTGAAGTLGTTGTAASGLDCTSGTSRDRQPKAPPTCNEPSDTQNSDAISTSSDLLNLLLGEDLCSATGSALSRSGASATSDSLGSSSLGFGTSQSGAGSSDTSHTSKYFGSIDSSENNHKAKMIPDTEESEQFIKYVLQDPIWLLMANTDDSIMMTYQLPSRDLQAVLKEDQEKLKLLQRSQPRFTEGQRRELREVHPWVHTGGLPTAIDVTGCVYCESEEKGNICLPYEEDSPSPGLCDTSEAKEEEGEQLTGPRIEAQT

| Variant | effect of a mutation on the interaction |
| --- | --- |
| S495G;L497P;I499T;R501Q;K503R;I505T;L509P | decreasing interaction |
| L497P;I499T;R501Q;I505T;L509P | decreasing interaction |
| I499T;R501Q | decreasing interaction |
| E493G;L497P;K503R;I505T;L509P | decreasing interaction |
| I499T;K503R;I505T;L509P | decreasing interaction |
| S495G;L497P;I499T;K503R;I505T;L509P | decreasing interaction |
| I499T;R501Q;I505T;L509P | decreasing interaction |
| R501Q;K503R | decreasing interaction |

Reference: IntAct's records for PubMed 20840750
